{"source": "patent US20220127355A1", "about": "(INTEGRAL MOLECULAR, published 2022)", "assay_in_all_cases": "Shotgun Mutagenesis epitope mapping; mean (range), % of wild-type Claudin 6", "key": {"P74A": {"biological_target": "T1, P74A", "T1 construct": "Shotgun Mutagenesis mutant; also called Claudin 6 P74A", "T1 chain": "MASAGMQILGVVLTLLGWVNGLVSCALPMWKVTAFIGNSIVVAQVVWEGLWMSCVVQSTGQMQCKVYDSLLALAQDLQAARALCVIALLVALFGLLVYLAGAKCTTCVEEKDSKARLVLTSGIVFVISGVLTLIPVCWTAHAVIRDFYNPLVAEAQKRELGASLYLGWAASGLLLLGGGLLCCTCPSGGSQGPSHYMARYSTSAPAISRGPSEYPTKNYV"}, "E48A": {"biological_target": "T2, E48A", "T2 construct": "Shotgun Mutagenesis mutant; also called Claudin 6 E48A", "T2 chain": "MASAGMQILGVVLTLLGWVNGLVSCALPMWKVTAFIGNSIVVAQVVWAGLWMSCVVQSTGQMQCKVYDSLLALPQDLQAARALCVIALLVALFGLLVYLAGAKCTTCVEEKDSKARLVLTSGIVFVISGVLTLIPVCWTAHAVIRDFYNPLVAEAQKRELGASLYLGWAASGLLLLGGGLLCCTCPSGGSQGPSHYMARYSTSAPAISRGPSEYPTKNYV"}, "R158A": {"biological_target": "T3, R158A", "T3 construct": "Shotgun Mutagenesis mutant; also called Claudin 6 R158A", "T3 chain": "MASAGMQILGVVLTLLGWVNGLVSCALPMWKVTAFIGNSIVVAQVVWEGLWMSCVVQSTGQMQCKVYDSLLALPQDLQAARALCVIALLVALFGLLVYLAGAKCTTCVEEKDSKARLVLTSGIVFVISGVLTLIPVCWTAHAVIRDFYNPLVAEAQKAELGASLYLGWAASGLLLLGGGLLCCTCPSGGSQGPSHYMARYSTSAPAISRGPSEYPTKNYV"}, "D76A": {"biological_target": "T4, D76A", "T4 construct": "Shotgun Mutagenesis mutant; also called Claudin 6 D76A", "T4 chain": "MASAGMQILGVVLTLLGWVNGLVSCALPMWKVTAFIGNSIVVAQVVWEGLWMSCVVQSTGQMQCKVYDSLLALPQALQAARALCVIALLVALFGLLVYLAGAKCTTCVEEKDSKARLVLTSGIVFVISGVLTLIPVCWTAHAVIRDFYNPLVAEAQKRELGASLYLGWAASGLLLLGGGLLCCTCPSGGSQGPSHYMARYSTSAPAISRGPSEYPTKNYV"}, "E154A": {"biological_target": "T5, E154A", "T5 construct": "Shotgun Mutagenesis mutant; also called Claudin 6 E154A", "T5 chain": "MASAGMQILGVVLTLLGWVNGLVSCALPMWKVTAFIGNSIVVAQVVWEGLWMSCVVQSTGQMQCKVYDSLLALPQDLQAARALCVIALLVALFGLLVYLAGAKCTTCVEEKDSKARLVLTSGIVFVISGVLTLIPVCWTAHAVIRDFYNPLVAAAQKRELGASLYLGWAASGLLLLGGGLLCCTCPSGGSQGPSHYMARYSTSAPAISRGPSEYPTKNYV"}, "Q78A": {"biological_target": "T6, Q78A", "T6 construct": "Shotgun Mutagenesis mutant; also called Claudin 6 Q78A", "T6 chain": "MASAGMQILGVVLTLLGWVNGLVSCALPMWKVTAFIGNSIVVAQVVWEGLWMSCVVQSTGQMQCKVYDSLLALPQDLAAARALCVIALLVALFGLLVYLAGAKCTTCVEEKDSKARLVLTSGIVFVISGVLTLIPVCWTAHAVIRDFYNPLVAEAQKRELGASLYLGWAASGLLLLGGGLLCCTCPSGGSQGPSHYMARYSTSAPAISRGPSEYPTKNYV"}, "D146A": {"biological_target": "T7, D146A", "T7 construct": "Shotgun Mutagenesis mutant; also called Claudin 6 D146A", "T7 chain": "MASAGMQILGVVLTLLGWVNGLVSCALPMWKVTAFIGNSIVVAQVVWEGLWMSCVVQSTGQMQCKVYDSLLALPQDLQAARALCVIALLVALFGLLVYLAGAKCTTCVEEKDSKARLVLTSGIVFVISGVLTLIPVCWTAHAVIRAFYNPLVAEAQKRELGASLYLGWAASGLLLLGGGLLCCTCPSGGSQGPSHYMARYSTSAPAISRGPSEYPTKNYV"}, "Q156L": {"biological_target": "T8, Q156L", "T8 construct": "Shotgun Mutagenesis mutant; also called Claudin 6 Q156L", "T8 chain": "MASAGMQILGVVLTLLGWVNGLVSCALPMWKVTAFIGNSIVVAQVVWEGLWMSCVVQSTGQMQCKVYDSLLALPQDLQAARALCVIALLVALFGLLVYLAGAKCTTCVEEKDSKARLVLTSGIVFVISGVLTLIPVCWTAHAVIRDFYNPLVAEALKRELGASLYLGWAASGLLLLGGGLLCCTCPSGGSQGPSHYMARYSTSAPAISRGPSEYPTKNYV"}, "V45A": {"biological_target": "T9, V45A", "T9 construct": "Shotgun Mutagenesis mutant; also called Claudin 6 V45A", "T9 chain": "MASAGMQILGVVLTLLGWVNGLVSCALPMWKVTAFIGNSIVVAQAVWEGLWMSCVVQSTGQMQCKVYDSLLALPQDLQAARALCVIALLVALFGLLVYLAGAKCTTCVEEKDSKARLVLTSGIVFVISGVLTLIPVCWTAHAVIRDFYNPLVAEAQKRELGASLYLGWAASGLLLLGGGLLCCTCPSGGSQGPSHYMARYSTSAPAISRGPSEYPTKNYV"}, "D68A": {"biological_target": "T10, D68A", "T10 construct": "Shotgun Mutagenesis mutant; also called Claudin 6 D68A", "T10 chain": "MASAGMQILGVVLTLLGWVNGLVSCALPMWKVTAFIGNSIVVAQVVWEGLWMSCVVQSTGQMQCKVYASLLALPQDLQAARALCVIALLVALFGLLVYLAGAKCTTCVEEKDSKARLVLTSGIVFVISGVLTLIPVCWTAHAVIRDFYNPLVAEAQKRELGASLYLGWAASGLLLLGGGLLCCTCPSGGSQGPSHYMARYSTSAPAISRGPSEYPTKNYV"}}, "data": [{"binder": "IM173 (antibody, V domains shown, Detected with anti-human IgG Fc secondary) VH: AVTLDESGGGLQTPGGALSLVCKASGFTFSSYSMFWVRRAPGKGLEWVAGIDSGSTTFYGSAVKGRATISRDNGQSTVRLQLNNLRAEDTATYYCAKDAYGYCGWSGCSADSIDAWGHGTEVIVSS VL: ALTQPSSVSANPGGTVEITCSGGNNYYGWYQQKSPGSAPVTVIYYNDKRPSDIPSRFSGSKSGSTGTLTITGVQADDEAVYFCGGWDSSGGIFGAGTTLTVL", "values": [{"measurement": "Binding Reactivity (% WT)", "setting": "P74A", "result": 147, "unit": "% WT"}, {"measurement": "Binding Reactivity (% WT)", "setting": "E48A", "result": -0.5, "unit": "% WT"}, {"measurement": "Binding Reactivity (% WT)", "setting": "R158A", "result": 3.6, "unit": "% WT"}, {"measurement": "Binding Reactivity (% WT)", "setting": "D76A", "result": 76.8, "unit": "% WT"}, {"measurement": "Binding Reactivity (% WT)", "setting": "E154A", "result": 134, "unit": "% WT"}, {"measurement": "Binding Reactivity (% WT)", "setting": "Q78A", "result": 144, "unit": "% WT"}, {"measurement": "Binding Reactivity (% WT)", "setting": "D146A", "result": 119, "unit": "% WT"}, {"measurement": "Binding Reactivity (% WT)", "setting": "Q156L", "result": 10.7, "unit": "% WT"}, {"measurement": "Binding Reactivity (% WT)", "setting": "V45A", "result": 76.1, "unit": "% WT"}, {"measurement": "Binding Reactivity (% WT)", "setting": "D68A", "result": 89.6, "unit": "% WT"}]}, {"binder": "IM171 (antibody, V domains shown, Detected with anti-human IgG Fc secondary; also called LM171) VH: AVTLDESGGGLQTPGGALSLVCKASGFDFSSYAMNWVRQAPGKGLEWVAGIGSTGSSTGYGPAVKGRATISRDNGQSTLRLQLNNLRAEDTAIYYCAKSVGNGNSWSGYIATSIDAWGHGTEVIVSS VL: ALTQPSSVSANLGGTVKLTCSGGSSGYGWYQQKSPGSAPVTVIYSNDKRPSDIPSRFSGSLSGSTGTLTITGVQADDEAVYFCGSTDNSYVGIFGAGTTLTVL", "values": [{"measurement": "Binding Reactivity (% WT)", "setting": "P74A", "result": 37.5, "unit": "% WT"}, {"measurement": "Binding Reactivity (% WT)", "setting": "E48A", "result": 0.9, "unit": "% WT"}, {"measurement": "Binding Reactivity (% WT)", "setting": "R158A", "result": 1.3, "unit": "% WT"}, {"measurement": "Binding Reactivity (% WT)", "setting": "D76A", "result": 6, "unit": "% WT"}, {"measurement": "Binding Reactivity (% WT)", "setting": "E154A", "result": 4, "unit": "% WT"}, {"measurement": "Binding Reactivity (% WT)", "setting": "Q78A", "result": 151, "unit": "% WT"}, {"measurement": "Binding Reactivity (% WT)", "setting": "D146A", "result": 57.6, "unit": "% WT"}, {"measurement": "Binding Reactivity (% WT)", "setting": "Q156L", "result": 10, "unit": "% WT"}, {"measurement": "Binding Reactivity (% WT)", "setting": "V45A", "result": 88.4, "unit": "% WT"}, {"measurement": "Binding Reactivity (% WT)", "setting": "D68A", "result": 93.7, "unit": "% WT"}]}]}
